Like-named read-outs stand apart in the source and are kept apart here.
Assays:
[1] = target: β-glucuronidase (Homo sapiens) (UniProt P08236); settings: cited from earlier work
[2] = target: β-glucuronidase (Homo sapiens) (UniProt P08236); settings: cited from earlier work; remark: listed apart in the source
[3] = target: β-glucuronidase (Homo sapiens) (UniProt P08236); settings: cited from earlier work; remark: listed apart in the source
[4] = target: T1, cation-dependent mannose 6-phosphate receptor (sCD-MPR) (Bos taurus, UniProt P11456, N59Q/N85Q/N96Q/N115Q); test: […]-1H HSQC NMR titration; type: binding
T1 sequence (P11456 29-182 N59Q/N85Q/N96Q/N115Q): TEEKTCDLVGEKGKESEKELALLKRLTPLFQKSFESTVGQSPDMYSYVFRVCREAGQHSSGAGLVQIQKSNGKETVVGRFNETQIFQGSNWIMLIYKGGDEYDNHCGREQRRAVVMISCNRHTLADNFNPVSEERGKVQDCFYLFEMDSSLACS

β-glucuronidase (Homo sapiens), sequence (P08236 23-651): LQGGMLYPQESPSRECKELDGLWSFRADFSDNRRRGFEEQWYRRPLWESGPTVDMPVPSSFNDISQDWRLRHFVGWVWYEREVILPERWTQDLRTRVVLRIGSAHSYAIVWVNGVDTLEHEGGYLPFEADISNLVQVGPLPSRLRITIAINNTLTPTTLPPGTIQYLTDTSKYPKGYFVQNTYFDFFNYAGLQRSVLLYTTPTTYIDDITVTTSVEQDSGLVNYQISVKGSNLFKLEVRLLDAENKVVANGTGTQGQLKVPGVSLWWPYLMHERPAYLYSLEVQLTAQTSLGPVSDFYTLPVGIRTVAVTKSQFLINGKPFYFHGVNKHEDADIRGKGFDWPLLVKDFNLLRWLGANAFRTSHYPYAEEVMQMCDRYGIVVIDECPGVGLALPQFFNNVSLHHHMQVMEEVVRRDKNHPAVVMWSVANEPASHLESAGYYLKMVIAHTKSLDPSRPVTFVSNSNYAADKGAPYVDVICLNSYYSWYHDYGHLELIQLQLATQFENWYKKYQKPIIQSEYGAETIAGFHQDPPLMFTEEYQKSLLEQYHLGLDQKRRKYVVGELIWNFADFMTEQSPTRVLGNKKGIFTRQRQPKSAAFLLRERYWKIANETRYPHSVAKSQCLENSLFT

For “cation-dependent mannose 6-phosphate receptor (from UniProt P11456)”, the Kd [1] is given as 0.00028 µM.

For “cation-dependent mannose 6-phosphate receptor (sCD-MPR) ECD (from UniProt P11456)”, the Kd [2] is listed as 0.0014 µM.

For “cation-dependent mannose 6-phosphate receptor (sCD-MPRHis6) ECD (from UniProt P11456)”, the Kd [3] is given as 0.0015 µM.

In the case of `O=P(O)(O)OC[C@H]1OC(O)[C@@H](O)[C@@H](O)[C@@H]1O` (stereo partly shown) [mannose 6-phosphate], the Kd [4] is reported as about 1000 µM.

Reference: article PMC2802658 (Biochemistry, 2010)
